From PMC7430652

Target: 39S large mitoribosome subunit (mtLSU) (human (endogenous in HEK293T and 143B))
Assay: co-sedimentation

percent of total GTPBP5 co-sedimenting: 60%
B1: GTPBP5 (natural protein)
chain: MAPARCFSARLRTVFQGVGHWALSTWAGLKPSRLLPQRASPRLLSVGRADLAKHQELPGKKLLSEKKLKRYFVDYRRVLVCGGNGGAGASCFHSEPRKEFGGPDGGDGGNGGHVILRVDQQVKSLSSVLSRYQGFSGEDGGSKNCFGRSGAVLYIRVPVGTLVKEGGRVVADLSCVGDEYIAALGGAGGKGNRFFLANNNRAPVTCTPGQPGQQRVLHLELKTVAHAGMVGFPNAGKSSLLRAISNARPAVASYPFTTLKPHVGIVHYEGHLQIAVADIPGIIRGAHQNRGLGSAFLRHIERCRFLLFVVDLSQPEPWTQVDDLKYELEMYEKGLSARPHAIVANKIDLPEAQANLSQLRDHLGQEVIVLSALTGENLEQLLLHLKVLYDAYAEAELGQGRQPLRW
